Assays:
calmodulin (Bos taurus) = calmodulin (Bos taurus) (UniProt P62157); conditions: cited from earlier work
[1] = target: light-activated unphosphorylated rhodopsin (UniProt P02699 1-348, light-activated)
Chain of light-activated unphosphorylated rhodopsin (P02699 whole entry): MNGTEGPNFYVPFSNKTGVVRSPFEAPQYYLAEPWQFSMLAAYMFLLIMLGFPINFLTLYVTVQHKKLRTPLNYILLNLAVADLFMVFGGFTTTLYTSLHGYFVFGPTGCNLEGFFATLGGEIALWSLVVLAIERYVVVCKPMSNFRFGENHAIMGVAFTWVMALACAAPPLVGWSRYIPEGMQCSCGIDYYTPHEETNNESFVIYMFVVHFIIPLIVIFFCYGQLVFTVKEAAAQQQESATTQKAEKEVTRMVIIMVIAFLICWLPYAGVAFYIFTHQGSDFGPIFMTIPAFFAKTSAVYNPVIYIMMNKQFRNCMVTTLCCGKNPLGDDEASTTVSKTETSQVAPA

Row | Molecule | Kd (calmodulin (Bos taurus)) | percent of the maximum binding achieved at 37°C [1]
1 | arrestin-1 (from UniProt P08168) | 7 µM | –
2 | arrestin-1 3A+R175E combination mutant (natural protein, UniProt P08168 1-404, looked up) MKANKPAPNHVIFKKISRDKSVTIYLGKRDYIDHVERVEPVDGVVLVDPELVKGKRVYVSLTCAFRYGQEDIDVMGLSFRRDLYFSQVQVFPPVGASGATTRLQESLIKKLGANTYPFLLTFPDYLPCSVMLQPAPQDVGKSCGVDFEIKAFATHSTDVEEDKIPKKSSVRLLIEKVQHAPRDMGPQPRAEASWQFFMSDKPLRLAVSLSKEIYYHGEPIPVTVAVTNSTEKTVKKIKVLVEQVTNVVLYSSDYYIKTVAAEEAQEKVPPNSSLTKTLTLVPLLANNRERRGIALDGKIKHEDTNLASSTIIKEGIDKTVMGILVSYQIKVKLTVSGLLGELTSSEVATEVPFRLMHPQPEDPDTAKESFQDENAAAEEFARQNLKDAGEYKEEKTDQEAAMDE | – | 26%
